The values that follow come from publication PMC6956557, “Preclinical development of a novel CD47 nanobody with less toxicity and enhanced anti-cancer therapeutic potential” (Journal of Nanobiotechnology, 2020).

The target of one experiment is T1, hCD47 (ECD)-Fc (Homo sapiens, UniProt Q08722).
T1 construct: human CD47 ectodomain (ECD), residues 20-136; Cloned into a pFUSE vector; also called human CD47 (ECD)-Fc; recombinant hCD47 antigen
Nature of the experiment: ELISA; 5 μg/mL CD47 (ECD)-Fc proteins coated overnight at 4 °C, 1% BSA block, 10 μg/mL Nb for 1 h at room temperature; mouse anti-HA and anti-mouse IgG-alkaline phosphatase, A405. The settings on record: both partners purified.

The target in another experiment is T2, rat CD47 (ECD)-Fc (Rattus norvegicus, UniProt P97829).
T2 construct: rat CD47 ectodomain (ECD); source: HEK-293F, purified
The experiment is described as above. The settings on record: both partners purified.

For another experiment, the target named is T3, mouse CD47 (ECD)-Fc (Mus musculus, UniProt Q61735).
T3 construct: mouse CD47 ectodomain (ECD); source: HEK-293F, purified
Described as above. The note with it: both partners purified.

Experiment [1] deals with T4, human CD47 on the surface of cells (human (endogenous in Raji), UniProt Q08722).
T4 construct: human CD47 (integrin-associated protein) on the cell surface; also called hCD47; CD47 expressed on Raji cells; source: endogenous, on Raji cells; endogenous, on human RBCs of healthy donors
T4 sequence (Q08722 19-323): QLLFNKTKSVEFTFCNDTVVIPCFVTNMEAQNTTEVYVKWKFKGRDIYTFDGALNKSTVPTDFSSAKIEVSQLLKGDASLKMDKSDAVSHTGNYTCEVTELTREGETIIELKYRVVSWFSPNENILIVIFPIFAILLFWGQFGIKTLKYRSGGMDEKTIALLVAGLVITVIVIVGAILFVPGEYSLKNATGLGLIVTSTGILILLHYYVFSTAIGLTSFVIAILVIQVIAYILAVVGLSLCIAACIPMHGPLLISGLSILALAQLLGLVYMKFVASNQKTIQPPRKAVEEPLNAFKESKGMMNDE
Nature of the experiment: flow cytometry on cells; competition: Raji cells co-incubated with HuNb1-biotin or Rituximab-biotin and unlabelled antibody; streptavidin-PE. The settings on record: one partner purified.

T1 sequence (Q08722 20-136): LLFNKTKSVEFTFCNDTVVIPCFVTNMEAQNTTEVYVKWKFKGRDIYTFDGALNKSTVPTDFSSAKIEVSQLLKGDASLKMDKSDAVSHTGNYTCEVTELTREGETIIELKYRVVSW

B1: HuNb1 (VHH)
VHH: QVQLQESGGGLVQPGGSLRLSCAASGYAYTSDCMGWFRQTPGKGLEGVALIYTPGNSTNYADSVKGRFTISQDNSKSTVYLQMNSLRAEDTAMYYCAARRGACSLRLPFFYWGQGTLVTVSS
notes: as the VHH of m1; The nanobody alone as used in the ELISA, detected by an anti-HA antibody; also called CD47 Nb; source: E. coli WK6 (pMECS), purified (Ni-sepharose)
As to B1, the binding result is “binds” with hCD47 (ECD)-Fc, “no binding (tested: 10 μg/mL)” with rat CD47 (ECD)-Fc and “no binding (tested: 10 μg/mL)” with mouse CD47 (ECD)-Fc.

B2: HuNb1-biotin (VHH)
VHH: B1 VHH
notes: as the VHH of m1
As for B2, in experiment [1], the binding result is “binds”.
